Results on 14 molecules are retold here after patent publication US20120045438A1 (Janssen / Centocor, published 2012).

“And” between values parts separate entries of the source, which are not always exact repeats. Equal entries are not always repeated.

Test [1] addresses T1, human IL-13 R130Q variant (R110Q of the mature chain) (human, UniProt P35225 35-146, Biotinylated on amines (NHS-LC-biotin, 4:1) in ELISA, panning and competition assays. The letters are unchanged.).
T1 construct: R130Q counts from Met 1 of the signal peptide, R110Q on the mature chain; Bought from Peprotech; also called IL-13 R110Q; b-R130Q
Description: SPR (Biacore), mAb made in HEK293. For orientation: In SPR one partner is held on a chip, and binding of the other changes the refractive index at the surface.

Test [2] has as its target T1, human IL-13 R130Q variant (R110Q of the …). As to the kind of experiment: SPR (Biacore), mAb made in CHO.
Test [3] has the same target. Description: Ra2 binding inhibition ELISA, mAb in crude HEK293 supernatant, IL-13 binding to IL-13Ra2. Background: ELISA stands for enzyme-linked immunosorbent assay.
Test [4] deals with T2, human wild-type IL-13 (mature chain) (human, UniProt P35225 35-146, Biotinylated on amines (NHS-LC-biotin) in the competition assays. The letters are unchanged.).
T2 construct: wild type has R at 110; Bought (Peprotech, R&D Systems); also called wt IL-13; IL-13-WT
As to the kind of experiment: IL-13R-alpha2 competition binding assay (Luminex based version per paragraph 147): mAb titrated against biotinylated IL-13-WT at 500 pg/ml; blocked partner IL-13Ra2; readout AFU.

Test [5] concerns the target T1, human IL-13 R130Q variant (R110Q of the …). As to the kind of experiment: SPR (Biacore), purified mAb from HEK293.
For test [6] the target is unchanged. Description: competition ELISA, biotinylated IL-13 R130Q binding to plate-bound IL-13Ra2, crude supernatant.
The target is the same in test [7]. Description: direct binding ELISA, mAb captured by anti-human Fc, biotinylated IL-13 R130Q, crude supernatant.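 Note: 100% is the positive control mAb signal.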
The target in test [8] is T2, human wild-type IL-13 (mature chain). Description: Luminex competition, inhibition of 500 pg/ml biotinylated wt IL-13 binding to IL-13Ra2.
Test [9] shares this target. Description: cell-based or functional assay.

As usually defined, the Kd is the equilibrium constant for the complex coming apart. A higher Kd goes with a looser complex. The term IC50 denotes the concentration at which inhibition is half-maximal. Low readings indicate higher potency, high ones lower potency.

B1: mAb Lc-2B03 with Hc2 M34S, M100L (antibody, V domains shown)
VH: QVTLKESGPVLVKPTETLTLTCTVSGFSLSTYGSGVGWIRQPPGKALEWLAHIWWDDVKRYNPALKSRLTISKDTSKSQVVLTMTNMDPVDTATYYCARLGSDYDVWFDYWGQGTLVTVSS
VL: EIVLTQSPATLSLSPGERATLSCRASKSISKYLAWYQQKPGQAPRLLIYSGSTLQSGIPARFSGSGSGTDFTLTISSLEPEDFAVYYCQQHDYPYTFGQGTKLEIK
notes: full-length mAb, made in HEK293 and CHO
Consider B1, for which the values for the Kd in [1] and in test [2] were 0.0014 nM and 0.0184 nM, respectively.

B2: mAb with Lc 2B03 (Lc6 variant) and Hc2 (antibody, V domains shown)
VH: QVTLKESGPVLVKPTETLTLTCTVSGFSLSTYGMGVGWIRQPPGKALEWLAHIWWDDVKRYNPALKSRLTISKDTSKSQVVLTMTNMDPVDTATYYCARMGSDYDVWFDYWGQGTLVTVSS
VL: EIVLTQSPATLSLSPGERATLSCRASKSISKYLAWYQQKPGQAPRLLIYSGSTLQSGIPARFSGSGSGTDFTLTISSLEPEDFAVYYCQQHDYPYTFGQGTKLEIK
notes: human IgG1
Regarding B2, the “% Ra2 Binding Inhibition” value in [3] turned out to be 90.6%. In addition, the “IC50 (read off the curve)” value in [4] was ~2 ng/mL.

B3: Lc6Hc2 (antibody, V domains shown)
VH: QVTLKESGPVLVKPTETLTLTCTVSGFSLSTYGMGVGWIRQPPGKALEWLAHIWWDDVKRYNPALKSRLTISKDTSKSQVVLTMTNMDPVDTATYYCARMGSDYDVWFDYWGQGTLVTVSS
VL: EIVLTQSPATLSLSPGERATLSCRASKSISKYLAWYQQKPGQAPRLLIYSGSTLQSGIPARFSGSGSGTDFTLTISSLEPEDFAVYYCQQHNEYPYTFGQGTKLEIK
notes: also called mAb 62; HFA62
With B3, the “% Ra2 Binding Inhibition” value in test [3] came out at 34.6%. For the same molecule, the Kd in test [5] stood at 0.269 nM. Moreover, in test [6], the “Percent Inhibition IL-13 R130Q (333 ng/ml) to Ra2” value (“Percent Inhibition IL-13 R130Q” for short) came to 59%. Also, in test [7], the “Percent IL-13 R130Q (30 ng/ml) Binding” value came out at 86.1%.

B4: Lc14Hc2 (antibody, V domains shown)
VH: QVTLKESGPVLVKPTETLTLTCTVSGFSLSTYGMGVGWIRQPPGKALEWLAHIWWDDVKRYNPALKSRLTISKDTSKSQVVLTMTNMDPVDTATYYCARMGSDYDVWFDYWGQGTLVTVSS
VL: DIQMTQSPSTLSASVGDRVTITCRASKSISKYLAWYQQKPGKAPKLLIYSGSTLQSGVPSRFSGSGSGTEFTLTISSLQPDDFATYYCQQHNEYPYTFGGGTKVEIK
The molecule B4 had a Kd in test [5] of 0.256 nM. For the same molecule, the “Percent Inhibition IL-13 R130Q” value in [6] turned out to be 54%. In test [7], the “Percent IL-13 R130Q (30 ng/ml) Binding” value was 91.8%.

B5: Lc3Hc2 (antibody, V domains shown)
VH: QVTLKESGPVLVKPTETLTLTCTVSGFSLSTYGMGVGWIRQPPGKALEWLAHIWWDDVKRYNPALKSRLTISKDTSKSQVVLTMTNMDPVDTATYYCARMGSDYDVWFDYWGQGTLVTVSS
VL: AIQLTQSPSSLSASVGDRVTITCRASKSISKYLAWYQQKPGKAPKLLIYSGSTLQSGVPSRFSGSGSGTDFTLTISSLQPEDFATYYCQQHNEYPYTFGGGTKVEIK
In the case of B5, binding in test [5] was characterised by a dissociation constant (Kd) of 0.246 nM. Moreover, in [6], the “Percent Inhibition IL-13 R130Q” value was 50%. For the same molecule, the “Percent IL-13 R130Q (30 ng/ml) Binding” value in test [7] amounted to 85.3%.

B6: mAb Lc-2B03 with Hc2 M34E, M100L, V106I (antibody, V domains shown)
VH: QVTLKESGPVLVKPTETLTLTCTVSGFSLSTYGEGVGWIRQPPGKALEWLAHIWWDDVKRYNPALKSRLTISKDTSKSQVVLTMTNMDPVDTATYYCARLGSDYDIWFDYWGQGTLVTVSS
VL: EIVLTQSPATLSLSPGERATLSCRASKSISKYLAWYQQKPGQAPRLLIYSGSTLQSGIPARFSGSGSGTDFTLTISSLEPEDFAVYYCQQHDYPYTFGQGTKLEIK
notes: full-length mAb
Molecule B6 came in with an IC50 in test [8] of 2.54 ng/mL. For the same molecule, in [9], the “P-STAT6 EC50” value was determined as 1.79 ng/mL. Moreover, the Kd in [1] came to 0.0114 nM.

B7: mAb Lc-2B03 with Hc2 T31S, M34S, M100L (antibody, V domains shown)
VH: QVTLKESGPVLVKPTETLTLTCTVSGFSLSSYGSGVGWIRQPPGKALEWLAHIWWDDVKRYNPALKSRLTISKDTSKSQVVLTMTNMDPVDTATYYCARLGSDYDVWFDYWGQGTLVTVSS
VL: EIVLTQSPATLSLSPGERATLSCRASKSISKYLAWYQQKPGQAPRLLIYSGSTLQSGIPARFSGSGSGTDFTLTISSLEPEDFAVYYCQQHDYPYTFGQGTKLEIK
notes: as for B1
In test [8], B7 returned an IC50 of 1.72 ng/mL. The “P-STAT6 EC50” value in test [9] amounted to 0.59 ng/mL. Besides, the Kd in [1] was found to be 0.0123 nM; in test [2] it was 0.0101 nM.

B8: mAb Lc-2B03 with Hc2 M34S, M100L, V106I (antibody, V domains shown)
VH: QVTLKESGPVLVKPTETLTLTCTVSGFSLSTYGSGVGWIRQPPGKALEWLAHIWWDDVKRYNPALKSRLTISKDTSKSQVVLTMTNMDPVDTATYYCARLGSDYDIWFDYWGQGTLVTVSS
VL: EIVLTQSPATLSLSPGERATLSCRASKSISKYLAWYQQKPGQAPRLLIYSGSTLQSGIPARFSGSGSGTDFTLTISSLEPEDFAVYYCQQHDYPYTFGQGTKLEIK
notes: full-length mAb; both are written under this molecule
For the molecule B8, the IC50 in [8] is 2.25 ng/mL. The “P-STAT6 EC50” value in test [9] was determined as 1.1 ng/mL. Moreover, the Kd in test [1] was 0.0205 nM and 0.0209 nM.

B9: mAb Lc-2B03 with Hc2 M34Q, M100L (antibody, V domains shown)
VH: QVTLKESGPVLVKPTETLTLTCTVSGFSLSTYGQGVGWIRQPPGKALEWLAHIWWDDVKRYNPALKSRLTISKDTSKSQVVLTMTNMDPVDTATYYCARLGSDYDVWFDYWGQGTLVTVSS
VL: EIVLTQSPATLSLSPGERATLSCRASKSISKYLAWYQQKPGQAPRLLIYSGSTLQSGIPARFSGSGSGTDFTLTISSLEPEDFAVYYCQQHDYPYTFGQGTKLEIK
notes: as for B1
On to B9, for which the IC50 in [8] was 1.71 ng/mL. In addition, the “P-STAT6 EC50” value in [9] came out at 0.87 ng/mL. For the same molecule, the Kd turned out to be 0.0243 nM in [1] and 0.0251 nM in [2].

B10: Lc8Hc2 (antibody, V domains shown)
VH: QVTLKESGPVLVKPTETLTLTCTVSGFSLSTYGMGVGWIRQPPGKALEWLAHIWWDDVKRYNPALKSRLTISKDTSKSQVVLTMTNMDPVDTATYYCARMGSDYDVWFDYWGQGTLVTVSS
VL: DIQMTQSPSTLSASVGDRVTITCRASKSISKYLAWYQQKPGKAPKLLIYSGSTLQSGVPSRFSGSGSGTEFTLTISSLQPDDFATYYCQQHNEYPYTFGQGTRLEIK
In test [5], B10 came in with a Kd of 0.272 nM. Besides, the “Percent Inhibition IL-13 R130Q” value in [6] stood at 55%. For the same molecule, in [7], the “Percent IL-13 R130Q (30 ng/ml) Binding” value amounted to 81.1%.

B11: mAb Lc-2B03 with Hc2 T31S, M34V, M100L (antibody, V domains shown)
VH: QVTLKESGPVLVKPTETLTLTCTVSGFSLSSYGVGVGWIRQPPGKALEWLAHIWWDDVKRYNPALKSRLTISKDTSKSQVVLTMTNMDPVDTATYYCARLGSDYDVWFDYWGQGTLVTVSS
VL: EIVLTQSPATLSLSPGERATLSCRASKSISKYLAWYQQKPGQAPRLLIYSGSTLQSGIPARFSGSGSGTDFTLTISSLEPEDFAVYYCQQHDYPYTFGQGTKLEIK
notes: as for B1
As to B11, the IC50 in test [8] amounted to 1.75 ng/mL. Further, in test [9], the “P-STAT6 EC50” value came to 0.59 ng/mL. Further, the results for the Kd in [1] and in test [2] were 0.0037 nM and 0.0058 nM, respectively.

B12: Lc2Hc2 (antibody, V domains shown)
VH: QVTLKESGPVLVKPTETLTLTCTVSGFSLSTYGMGVGWIRQPPGKALEWLAHIWWDDVKRYNPALKSRLTISKDTSKSQVVLTMTNMDPVDTATYYCARMGSDYDVWFDYWGQGTLVTVSS
VL: DIQMTQSPSSLSASVGDRVTITCRASKSISKYLAWYQQKPGKAPKLLIYSGSTLQSGVPSRFSGSGSGTDFTLTISSLQPEDFATYYCQQHNEYPYTFGQGTKLEIK
Consider B12, for which binding in test [5] was put at a Kd of 0.365 nM. The “Percent Inhibition IL-13 R130Q” value in [6] is 52%. In addition, in test [7], the “Percent IL-13 R130Q (30 ng/ml) Binding” value came to 84%.

B13: mAb Lc-2B03 with Hc2 M34V, M100L, V106I (antibody, V domains shown)
VH: QVTLKESGPVLVKPTETLTLTCTVSGFSLSTYGVGVGWIRQPPGKALEWLAHIWWDDVKRYNPALKSRLTISKDTSKSQVVLTMTNMDPVDTATYYCARLGSDYDIWFDYWGQGTLVTVSS
VL: EIVLTQSPATLSLSPGERATLSCRASKSISKYLAWYQQKPGQAPRLLIYSGSTLQSGIPARFSGSGSGTDFTLTISSLEPEDFAVYYCQQHDYPYTFGQGTKLEIK
notes: full-length mAb
B13: the Kd in test [1] was found to be 0.0252 nM.

B14: mAb Lc-2B03 with Hc2 T31S, M34S, M100L, V106I (antibody, V domains shown)
VH: QVTLKESGPVLVKPTETLTLTCTVSGFSLSSYGSGVGWIRQPPGKALEWLAHIWWDDVKRYNPALKSRLTISKDTSKSQVVLTMTNMDPVDTATYYCARLGSDYDIWFDYWGQGTLVTVSS
VL: EIVLTQSPATLSLSPGERATLSCRASKSISKYLAWYQQKPGQAPRLLIYSGSTLQSGIPARFSGSGSGTDFTLTISSLEPEDFAVYYCQQHDYPYTFGQGTKLEIK
notes: as for B1
In [8], B14 registered an IC50 of 1.68 ng/mL. In test [9], the “P-STAT6 EC50” value was 0.65 ng/mL. The Kd was determined as 0.0152 nM in test [1] and 0.0211 nM in [2].
